Experiment [1] deals with human OX40/His (UniProt P43489). Description: SPR.
Experiment [2] addresses T1, Recombinant human OX40/His (human, UniProt P43489 29-216, limits assumed).
T1 construct: SPR analyte; also called human OX40 proteins; not shown: His tag
T1 sequence: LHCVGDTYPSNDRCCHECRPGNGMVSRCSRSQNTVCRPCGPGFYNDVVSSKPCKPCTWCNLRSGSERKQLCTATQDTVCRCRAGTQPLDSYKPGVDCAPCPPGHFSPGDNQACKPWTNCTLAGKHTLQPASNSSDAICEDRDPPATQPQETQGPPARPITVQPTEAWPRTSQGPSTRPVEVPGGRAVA
The experiment can be described thus: SPR (Biacore T200), antibody captured by anti-human Fc, OX40/His as analyte, 1:1 model. How it is done:
Kinetic interactions between antibodies and human OX40 proteins were measured at 25° C. using Biacore T200 surface plasmon resonance (GE Healthcare). Anti-human fragment crystallizable region (Fc region) antibody was immobilized on a CMS sensor chip to approximately 8000 resonance units (RU) using standard N-hydroxysuccinimide/N-Ethyl-N′-(3-dimethylaminopropyl) carbodiimide hydrochloride (NHS/EDC) coupling methodology. The anti-OX40 antibody (2 μg/mL) was captured for 60 seconds at a flow rate of 10 μL/minute. Recombinant human OX40/His was serially diluted in a running buffer of 0.01 M HEPES pH 7.4, 0.15 M NaCl, 3 mM EDTA, 0.05% v/v Surfactant P20 (HBS-EP+). All measurements were conducted in HBS-EP+ buffer with a flow rate of 30 μL/minute. A 1:1 (Langmuir) binding model was used to fit the data.

In experiment [3] the target is T2, Recombinant human OX40/His (UniProt P43489 29-216).
T2 chain: T1 sequence
Description: SPR.

For experiment [4], the target named is T3, human OX40 antigen (soluble, titrated in the ELISA of Example 1) (UniProt P43489 29-216).
T3 chain: T1 sequence
The experiment can be described thus: ELISA, immobilized Ab.

In experiment [5] the target is T4, mouse OX40 (mouse, UniProt P47741 20-211, limits assumed).
T4 construct: Capture on Ni-NTA implies a His tag; also called mouse OX40 antigen
T4 sequence (looked up): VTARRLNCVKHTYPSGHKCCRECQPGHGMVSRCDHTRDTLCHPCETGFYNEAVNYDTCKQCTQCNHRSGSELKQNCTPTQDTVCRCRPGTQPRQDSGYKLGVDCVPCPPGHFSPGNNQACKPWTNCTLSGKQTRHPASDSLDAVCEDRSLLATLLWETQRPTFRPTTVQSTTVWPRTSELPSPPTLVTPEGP
Description: ELISA, OX40 antigen captured on Ni-NTA plate, antibody at 1 ug/mL. The procedure:
Ni-NTA plate was captured with 50 ul per well of human, mouse, and rhesus OX40 antigen solutions at a concentration of 1 ug/ml in PBS and incubated 1 hour at room temperature. After washing the plate with 0.05% PBS/Tween, 1 ug/mL the human anti-OX40 antibodies in Blocker™ Casein in PBS (Thermo Fisher Catalog Number: 37528) were added with 50 ul per well and incubated for one hour at room temperature. The plate was washed again with 0.05% PBS/Tween and incubated with 50 ul of Jackson Immuno Research Peroxidase AffiniPure Goat Anti-Human IgG, Fcγ Fragment (Catalog Number: 109-035-098) for one hour at room temperature. After washing, the plate was developed with 1-Step™ Ultra TMB-ELISA Substrate Solution (Thermo Fisher Catalog Number: 34028). The plate was read in the FlexStation 3 at OD 450.

Experiment [6] addresses T2, Recombinant human OX40/His. The experiment can be described thus: SPR.
Experiment [7] concerns the target T5, membrane-bound human OX40 (on human OX40-expressing cells) (human, UniProt P43489 29-277).
T5 construct: also called human OX40-expressing MJ cells; OX40+ HEK293-NFkB-luciferase reporter cells
T5 sequence: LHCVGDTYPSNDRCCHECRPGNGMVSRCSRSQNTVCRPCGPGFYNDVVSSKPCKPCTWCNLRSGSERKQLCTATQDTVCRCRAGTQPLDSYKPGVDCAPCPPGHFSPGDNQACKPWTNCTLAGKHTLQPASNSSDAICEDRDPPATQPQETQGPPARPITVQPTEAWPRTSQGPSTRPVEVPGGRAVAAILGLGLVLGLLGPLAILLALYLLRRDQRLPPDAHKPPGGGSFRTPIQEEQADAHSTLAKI
The experiment can be described thus: flow cytometry on human OX40-expressing MJ cells.

Where a chain is given by its changes, count along the chain named. Read-outs that look alike come from different tables or passages of the source.

Turning to MOXR0916/RG7888, the dissociation constant (Kd) in experiment [1] is 3.2 nM.

B1: 5-A8 variant anti-OX40 antibody (antibody, V domains shown)
VH: QVQLVQSGAEVKKPGASVKVSCKTSGYTFTGYYLHWVRQAPGQGLEWMGIINPSDGSTRNAQKFEGRVTMTRDTSTSTVYMELSSLSPEDTAVYYCARDLEYIGSGSLSWFDPWGQGTLVTVSS
VL: QSALTQPASVSGSPGQSITISCTGSSSDIGGYNSVSWYQQYPGKAPKLIIYDVNNRPSGVSNRFSGSKSGNTASLTISGLQAEDEADYYCSSYTFHTGLVYVFGTGTKVTVL
Regarding B1, the Kd in experiment [2] is below 5 nM; in experiment [3] it was 4.37 nM. In experiment [4], this molecule registered a concentration for half-maximal inhibition (IC50) of 0.0163 µg/mL.

B2: 5-A6 variant anti-OX40 antibody (antibody, V domains shown)
VH: B1 VH
VL: B1 VL with H96D
For the molecule B2, the Kd in experiment [2] is below 5 nM; in experiment [3], 2.41 nM. In experiment [4], half-maximal inhibition (IC50) was put at 0.0117 µg/mL.

B3: 5-F5 variant anti-OX40 antibody (antibody, V domains shown)
VH: B1 VH
VL: B1 VL with F95Y, H96D
On to B3, for which the values for the Kd in experiment [2] and in experiment [3] were below 5 nM and 3.01 nM, respectively. This molecule also displayed an IC50 in experiment [4] of 0.0263 µg/mL.

B4: 2B4 wild type anti-OX40 antibody (antibody, V domains shown)
VH: B1 VH with V2M
VL: QPVLTQPASVSGSPGQSITISCTGTSSDLGAYDYVSWYQQQPGQAPKLIIYDVNNRPSGVSNRFSGSKSGNTASLTISGLQAEDEADYYCSSYTSSSTLVYVFGTGTKVTVL
notes: Fully human antibody of an IgG class, captured or detected through human Fc; the isotype control used was IgG1; also called 2B4 (WT); wild type 2B4
Turning to B4, the binding result is “no binding (tested: 1 ug/mL)” in experiment [5] and “binds” in experiment [7]. In addition, the Kd in experiment [6] and in experiment [3] was 332 nM throughout. Besides, in experiment [4], it took 0.168 µg/mL to reach half-maximal inhibition (IC50).

B5: 5-H6 variant anti-OX40 antibody (antibody, V domains shown)
VH: B1 VH
VL: B1 VL with F95Y, H96D, T97N, G98D
On to B5, for which the Kd in experiment [2] was below 5 nM; in experiment [3], 3.51 nM. Moreover, in experiment [4], the IC50 worked out at 0.0275 µg/mL.

B6: 5-C8 variant anti-OX40 antibody (antibody, V domains shown)
VH: B1 VH
VL: B1 VL with F95H, H96N
Consider B6, for which the Kd in experiment [2] was below 5 nM; in experiment [3], 4.39 nM. In experiment [4], this molecule displayed an IC50 of 0.00353 µg/mL.

B7: 5-G8 variant anti-OX40 antibody (antibody, V domains shown)
VH: B1 VH
VL: B1 VL with F95Y, H96Y, G98E
B7: the Kd is below 5 nM in experiment [2] and 3.8 nM in experiment [3]. Further, in experiment [4], the IC50 was 0.0254 µg/mL.
